From patent US12472152B2, “Molecular entrapment via homopolymer self-assembly” (Northwestern University, priority 2019, dated 2025)
One block for each compound: values may come before it.

Experiments:
[1] = Loading experiments: encapsulation efficiency during PPSU20 self-assembly (fluorescence of supernatant); type: physicochemical
Experimental: Loading experiments. For the loading of Nile red, nanogels were prepared using pure water and Nile red-containing (0.1 mg/mL) DMSO solutions of PPSU20. For the loading of water-soluble drugs, aqueous solutions of FITC (0.05 mg/mL), doxorubicin hydrochloride (1 mg/mL), dextran (1 mg/mL), albumin (various concentrations), GFP (0.2 mg/mL), RNA (0.2 mg/mL), DNA (0.2 mg/mL), and DMSO solutions of PPSU20 (25 mg/mL) were used. Typically, 100 μL of the corresponding aqueous solution were mixed stepwise (10 μL/step or 100 μL/step) with 50 μL of PPSU20 solution under vortex, then another 400 μL of water was added. After centrifugation at 16000×g for 10 min, fluorescence of the supernatant was measured and the encapsulation efficiencies were calculated.

[2] = PPSU nanogel biodistribution and toxicity after subcutaneous injection; type: in vivo; conditions: mice, s.c. injection, 48 h, NIRF/IVIS
Experimental: Assessment of PPSU NBM biodistribution and toxicity: Preliminary assessment of vesicular PPSU nanogel biodistribution 48 h after subcutaneous (s.c.) injection (relevant for vaccination) was performed using near infrared fluorescence (NIRF) agent cardiogreen (ICG) as previously published by the Scott lab^1.

[3] = Solubility tests using PPSU20 crystals in water and common organic solvents; type: physicochemical; conditions: in words
Source text: PPSU can be synthesized from complete oxidation of poly(propylene sulfide) (PPS) (14, 15), which is known for its hydrophobic—hydrophilic transition upon oxidation (16-18). However, complete oxidation of PPS had not been previously achieved, since standard oxidation of PPS generates random copolymers of poly(propylene sulfoxide)-co-poly(propylene sulfone) (19). We successfully synthesized PPSU20 (20 sulfones, FIG. 5) using an atypically high concentration of H2O2. Highly concentrated H2O2 was generated in situ upon vacuum evaporation during the oxidizing reaction. […] Given that the chemical structure of PPSU (FIG. 1a) is characterized by a positively charged backbone with negatively charged pendent oxygen atoms (20), electrostatic repulsion among oxygen atoms (21) was expected to result in weak inter- and intra-chain associations.

[4] = Adsorption of FITC-BSA by preformed PPSU20 vesicular nanogels; type: physicochemical; conditions: fluorescence in 0.2 N NaOH
Experimental: PPSU20 vesicular nanogels were prepared by mixing 100 μL of water or 100 μL of aqueous FITC-BSA (1.0 mg/mL) solution with 100 μL of PPSU20 solution (25 mg/mL in DMSO) under vortex, followed by the addition of 1000 μL of water. Nanogels were collected by centrifugation and purified by 2 rounds of resuspension and centrifugation in 1000 μL of water. The preformed blank vesicular nanogels were further incubated with 100 μL of aqueous FITC-BSA (1.0 mg/mL) solution overnight, giving FITC-BSA-adsorbed nanogels after removal of free FITC-BSA by three rounds of centrifugation and resuspension in water. Blank nanogels, FITC-BSA-loaded nanogels, and FITC-BSA-adsorbed nanogels were resuspened in 1000 μL of water for fluorescence measurements or as the stocking solutions for fluorescence quantitative analysis in sodium hydroxide solution (0.2 N).

[5] = PPSU20 vesicular nanogels formed with a concentration series of FITC-BSA (DLS, zeta potential, encapsulation); type: physicochemical
trypsin protease = target: T1, trypsin protease (Sus scrofa, UniProt P00761); assay: Trypsin digestion of FITC-BSA-loaded PPSU20 vesicular nanogels; type: biochemical; conditions: overloaded 10 mg/mL sample; trypsin 2 μg/mL, 24 h, 37° C.
T1 construct: purchased Promega
T1 sequence (P00761 9-231): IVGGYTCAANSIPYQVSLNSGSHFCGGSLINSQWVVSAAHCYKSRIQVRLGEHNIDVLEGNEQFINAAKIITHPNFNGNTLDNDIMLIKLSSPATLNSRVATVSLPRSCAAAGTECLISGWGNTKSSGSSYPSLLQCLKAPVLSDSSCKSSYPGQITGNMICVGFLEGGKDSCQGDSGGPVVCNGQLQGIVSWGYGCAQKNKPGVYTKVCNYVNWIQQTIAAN
Experimental: Trypsin digestion of FITC-BSA-loaded PPSU20 vesicular nanogels. DMSO solutions of PPSU20 (200 μL, 25 mg/mL) were hydrated using 800 μL of aqueous FITC-BSA solutions (0, 0.1, 1.0, 10.0 mg/mL). DMSO was removed by dialysis after self-assembly. Negatively stained FITC-BSA-loaded PPSU20 vesicular nanogels were characterized by TEM. After removal of unloaded FITC-BSA by three rounds of centrifugation and resuspension in phosphate-buffered saline, FITC-BSA-loaded PPSU20 vesicular nanogels were subjected to digestion with trypsin protease (2 μg/mL; Trypsin Gold, Promega) for 24 h at 37° C., 80 rpm. Undigested FITC-BSA-loaded PPSU20 vesicular nanogels (i.e. no protease treatment) were included as a control. After 24 h incubation with trypsin, FITC fluorescence (Ex=490 nm, Em=525 nm) was quantified in triplicate using a SpectraMax M3 microplate reader (Molecular Devices). The percentage increase in FITC fluorescence (i.e., 100×(F(+)−F(−))/F(−)) after proteolysis was calculated, where F(+) is the fluorescence after protease treatment and F(−) is referred to the fluorescence in the absence of protease treatment.

[6] = 10 μL/step, mass ratio (drug/PPSU20) 0.08
[7] = 100 μL/step, mass ratio (drug/PPSU20) 0.08
[8] = 10 μL/step, mass ratio (drug/PPSU20) 0.004
[9] = 100 μL/step, mass ratio (drug/PPSU20) 0.004

Encapsulation efficiency [1, 6]: >96%
Encapsulation efficiency [1, 7]: >97%
Compound: COc1cccc2c1C(=O)c1c(O)c3c(c(O)c1C2=O)C[C@@](O)(C(=O)CO)C[C@@H]3O[C@H]1C[C@H](N)[C@H](O)[C@H](C)O1.Cl [DOX/HCl, doxorubicin hydrochloride]

Compound: CC1(C)C(/C=C/C=C/C=C/C=C2\N(CCCCS(=O)(=O)[O-])c3ccc4ccccc4c3C2(C)C)=[N+](CCCCS(=O)(=O)[O-])c2ccc3ccccc3c21.[Na+] [ICG]
biodistribution (organs) [2]: heart, brain and kidneys

Encapsulation efficiency [1, 8]: >96%
Encapsulation efficiency [1, 9]: >98%
Compound: CCN(CC)c1ccc2nc3c4ccccc4c(=O)cc-3oc2c1 [Nile red]

Solubility in water [3]: good water-solubility
Compound: CS(C)(=O)=O [dimethylsulfone]

encapsulated FITC-BSA accessible to cleavage (trypsin protease): 30-35%
Compound: Albumin: FITC-labeled albumin (FITC-BSA), a model protein; Table 1 entries 5 to 8
Encapsulation efficiency [1, 6]: >99%
Encapsulation efficiency ([1]; 10 μL/step, mass ratio (drug/PPSU20) 0.4): >99%
Encapsulation efficiency ([1]; 10 μL/step, mass ratio (drug/PPSU20) 0.8): >96%
Encapsulation efficiency ([1]; 10 μL/step, mass ratio (drug/PPSU20) 1.2): 83%
Encapsulation efficiency [1, 7]: >99%
Encapsulation efficiency ([1]; 100 μL/step, mass ratio (drug/PPSU20) 0.4): >99%
Encapsulation efficiency ([1]; 100 μL/step, mass ratio (drug/PPSU20) 0.8): >96%
Encapsulation efficiency ([1]; 100 μL/step, mass ratio (drug/PPSU20) 1.2): 80%
encapsulation capacity (w/w) ([1]; Table 1, entry 5 to 7): up to 80%
encapsulation of protein molecules from aqueous solutions ([1]; Table 1, entry 5 to 7): ~100%
EE ([1]; nanoparticles contained 20% more protein than polymer by mass (Table 1, entry 8)): Over 80%
Encapsulation efficiency ([4]; FITC-BSA-loaded vesicles, Em=518 nm): 97.8%
adsorption efficiency ([4]; preformed blank vesicles incubated with FITC-BSA overnight): 6.0%
protein by mass in nanogels ([5]; 10 mg/mL of protein, 3.6 mg FITC-BSA/5 mg PPSU): 72%
EE ([5]; in the presence of 10 mg/mL of protein): 45%
EE ([5]; loading of FITC-BSA at 0.1 mg/mL): approximately 100%
EE ([5]; loading of FITC-BSA at 1.0 mg/mL): approximately 100%

Encapsulation efficiency [1, 6]: >96%
Encapsulation efficiency [1, 7]: >96%
Compound: Dextran

Compound: fluorescein isothiocyanate [FITC]
Encapsulation efficiency [1, 8]: >99%
Encapsulation efficiency [1, 9]: >99%
